The text below walks through data of the DeepSol protein solubility set.

This series can be described thus: soluble on expression in E. coli; label from the status in PepcDB or PDB records.
In the case of “MSFVECPYHSPAERLVAEADEGGPSAITEILKELDECYERFSRETDGAQKRRMLHCVQRALIRSQELGDEKIQIVSQMVELVENRTRQVDSHVELFEAQQELGDTAGNSGKLEHHHHHH”, the “soluble on expression in E. coli” value was “not soluble”.

Take “MNKILIIISCILIMLTAFSCRRNVFNPNIPPRTEFIEDPIANLSIPSKDATIKVTPVEASINGYDSKSGQYGKMVYGHFEHYFEFKGHYYLTAAYQYIYGYTNEVIMIGNTTLMNYPNGHILEIDVNDGFKMKEVKANLGRTVPEYTRIAKIANGNAYQDDTYIYVQDSAGANYFKTSDFKSWTDTLSTTPPAGTTKREAVTMNRVQITANNGITYTYVYTGGGLQFSIERLDNRMKQLAQRLETKFTFKEEDFNNHHMFDIGINISTGTTADYRINPVEYIENDTNYIWIGKQSPHQIWLMPVKKDGKDYLIRFVEHCAGGGYYTIKMLETNINTYKKEAETALSKALAAVASDKPQAEIEQACYESIKADANYKANQYFYDVATKMGGLQGFWVGSPAVTEAGFISPNKPLTHYVIEFIDIQQ”: the “soluble on expression in E. coli” value was “not soluble”.

Take “MKQRHGNSLLTTDTKCISCRLGVPLSPQRRFQAIRIEEVKLRWFAFLIVLLAGCSSKHDYTNPPWNAKVPVQRAMQWMPISQKAGAAWGVDPQLITAIIAIESGGNPNAVSKSNAIGLMQLKASTSGRDVYRRMGWSGEPTTSELKNPERNISMGAAYLNILETGPLAGIEDPKVLQYALVVSYANGAGALLRTFSSDRKKAISKINDLDADEFLDHVARNHPAPQAPRYIYKLEQALDAM”: the “soluble on expression in E. coli” value was “not soluble”. With “EAMFCDFPKINHGILYDEEKYKPFSQVPTGEVFYYSCEYNFVSPSKSFWTRITCAEEGWSPTPKCLRLCFFPFVENGHSESSGQTHLEGDTVQIICNTGYRLQNNENNISCVERGWSTPPKCRSTISAEKCGPPPPIDNGDITSFLLSVYAPGSSVEYQCQNLYQLEGNNQITCRNGQWSEPPKCLDPCVISQEIMEKYNIKLKWTNQQKLYSRTGDIVEFVCKSGYHPTKSHSFRAMCQNGKLVYPSCEEK”, the “soluble on expression in E. coli” value is “not soluble”. Next, “MKKILVLGGAHIDRRGMIETETAPGASNPGSWMEEAGGGGFNAARNLSRLGFEVRIIAPRGGDVTGEVVAEAARQAGVEDTPFTFLDRRTPSYTAILERDGNLVIALADMDLYKLFTPRRLKVRAVREAIIASDFLLCDANLPEDTLTALGLIARACEKPLAAIAISPAKAVKLKAALGDIDILFMNEAEARALTGETAENVRDWPNILRKAGLSGGVVTRGASEVVAFNGTEKAILHPPLIREVKDVTGAGDAMASGYLAAIAEGKTIREALRQGAAAAAITVQSSFATSQDLSKDSVEAMLGLVPQAEMLA”: “soluble”; “MHRALNQDDDHNQDGQDLLEAVLARDNLARAWRRVKSNRGAPGIDGVTTAEWPEHARAHWPATREQIEAGRYRPQPVRRVDIPKPDGGQRQLGIPTVTDRVIQQAIAQVLIPIFDPGFSASSFGFRPGRNAHQAIRQVQAHVKAGYRWAVDLDLARFFDNVNHDLLMSLLSRSIADKRLLALIGRYLRAGVLVGEHPQPSEVGTPQGGPLSPLLANVLLHQFDLELERRGHRFARYADDVIILVKSRRAAERVMQSLTYFLQSTLKLTVNLAKSQVAPMSECSFLGFTLVGKKIRWTEKSLANFKHRVRQLTGRSWGVSMEYRLEKLGQYLRGWFGYYGISQYYRPIPELDEWIRRRVRMCYWKQWRWARTKIRHLLDLGIPLKAAIQHGVSSLSYWRMARTPVTQQAMSNDWLRAQGLLSIKDLWCKAQSYGPDKGLEHHHHHH”: “not soluble”. “MFTHLDENQQPRMVDISQKVAGDRRAVAQCIVQLPKAIKDYLTGQEIFLKKGPVIQTAIIAGTMAVKKTADLIPFCHTLPIHGCKFDINIVYQKRDYLEIFLQCAVNTNYKTGVEMEALCGVSVAALTIYDMCKSISSEIIIKNTKLIEKTGGKADVSQTPLYGLVLTGGKSRRMGKDKALINYQGQPHGQYIYDLLAKYCEQVFLSARPSQWQGTPLENLPTLVDRGESVGPMSGILTALQSYPGVNWLIIACDLAYINSTMVEKLIAQARQDLVATCYENADQGFPEALCGFYTPLALQLFTKAQNIGLHCPVKILQMADCQLIKPDNLFDIANINSPEDYGQINLEHHHHHH”: the “soluble on expression in E. coli” value was “not soluble”. In the case of “MGSDKIHHHHHHMVKTSQLPAVDRTVPLEQISQFAEKVTIFTDELRETILAPRPRKTAPIFKTGEIAEMCNISHSQVQYLATKGDGELPPGTAAGTGRTRTFTLQEARTWVQKVSDIYQTPLVTGTREPEGKIIITAQLKGGSAKTTTTMCLAQGLTLRGRKVLVVDLDPQASLSELCGLYAEKDVSPEDSVLPYIYDQQIEGGLQSRVQSTYWDGLDLIPAHTELIGAEFHLPAMQKIKPGFRFWTVLREGLEPLRKHYDYILMDTSPSLSYMNLNALLAADAMVMPMVPENLDFISSLSFWRLFSDVSKSFIKYEADKKYDFVSLLLSRVDYGRTSSAPIVRAWAQSAYESWLHSIEVPASSVMSTGALAFSTVFDVSSTHSAAKSLQRVRQPIVDYCRWLDEIYAEKWRSAQ”, the “soluble on expression in E. coli” value is given as “not soluble”. Turning to “MAHHHHHHMEEGDQATDAAETSALAANTLTREEQPDERSKNEVTLLEIKRKVQNEKEAQKDDNKQRKFKIINYTSKDSLVSKVEKEFFLFFCFLCGFNCLISETDVADLPRRKTDGSIIFPFKKIVHKKYYKTKKECILIRRREDALEVQFRILCKECGVPIGYVNSLADDNAYVYYYDYSFVRSQTKSRLFKDVSL”, the “soluble on expression in E. coli” value was “not soluble”. As to “MGFDASVLKSVLEQFVDEIGEESVDLIEDRPRFAHAVVVVTDDATGELCQASCIRQLDDVILHETSVANVTSEWMDEEIQRALRELTESRELLDTPRNSVFVEEKHEKQKTVTTTTTSTETSRNTSSRVEFPSMARRTRSTSAARRFN”, the “soluble on expression in E. coli” value was “not soluble”. For “DHWLRQDLRQMFIEELGSNAREIIQFVVGSHDIGKATPLFQYQKAQKGEVWDSIRYAIDRTGRYQKPLPSSYLVKKTSGGPNRHEQWSSFASKNEYLKPSAAAKENWIGLAIGGHHGRFEPVGYGRHQRKAAEDLAKSGWSAAQQDLLRALEKASGITRASLPSELSPELTLVLSGLTILADRISSTESFVITGARMIDDGTLHLATPIDWLKTRKLDSEKHVAKTVGIYHGWNNHESAIHSILKGYDPRPLQTIALQNQVGLLNLMAPTGNGKTEAAILRHSLKENDRLIFLLPTQATSNAIMRRVQGIYSDTPNVAALAHSLASVEDFYQTPLSVFDDHYDPSKEQFESSMSG”, the “soluble on expression in E. coli” value is listed as “not soluble”. As to “MTVAVSPDGLPALVLNADYRPLSYYPLSLWSWQDAIKAVFLDRVNIVAEYEHAVSSPTFSMKLPSVVSLKAYVKPSRHPAFTRFNVFLRDRFQCQYCGTPDDLTFDHVIPRHRGGATTWENVVAACSPCNLRKGGMMPAHAKMWPLQKPYQPTVHDLHNNGRLFPPNHLHESWMDYLYWDVELEPLEHHHHHH”, the “soluble on expression in E. coli” value is listed as “not soluble”.

On to “MTMHREPGGERYYYTWAWFEGPDDAAWRVTGHHTDSGEQYRLDWNLAERSLCVTDSLGRTRCHWWDAQGLVTAYRDEAGQMTTFRWSDEERLLLGMTDAQGGKWRYVYDRLGHLTETHDPLGRVEQTQWHPVWHQPETEVDAAGAAWRYEYDERGNLQAVSDPLHQRTVYGYDRHGQVVRITDARGGDKYLQWNEDGQLMRHTDCSGSQTAWFYDERTRLERVTDAESNSTRYSYDGNGHLTEVMFADGRTERYQPDAAGRLVKYTSPAGQITRWQRDGQGRVRRQTDATGRRTAYEYDAYGRLTTLTNENGESYRFRYDVLDRLTEQTDPGGSRRAYGYNALNAVTAVIYGGERGGEIRHGLERDAAGRLTAKTTPETRTEYRYDAADRLLEIRRRRHDAAEGGEPEVIRFSYDSAGNLLSEETAQGVLQHRYDVQGNRTETQMPDGRTLRYLYYGSGHLQQINLGRDVISEFTRDHLHREVQRSQGRLDTRRMYDRTGRLTRKPTCKGMRGVVPETFIDREYAYSGQDELLKKRHSRQGVTDYFYDTTGRITACRNEAYLDSWQYDAAANLLDRRQGETAQAGAGSVVPFNRITSYRGLHYRYDEYGRVVEKRGRNGTQHYRWDAEHRLTEVAVIRGSTVRRYGYVYDAPGRRVEKHELDAEGKPYNRTTFLWDGMRLAQECRLGRSSSLYIYSDQGSHEPLARVDRAAPGEADEVLYYHTDVNGAPEEMTDGRGNIVWEAGYQVWGNLTHEKETRPVQQNLRFQGQYLDRETGLHYNLYRFYDPDIGKFISGDPISIRGGINLYQYAPNPIKWIDPLGLYNGEGQRELGKYHVFHEHNLDITEYGLSDAEHFSRGNQAIYERMKNDPAFRREMQTKYPGVVEHVQPSSGGKFSTESPPGLTWHHENKPGVLSLVDRLDHKTYLEHHHHHH”, for which the “soluble on expression in E. coli” value is reported as “not soluble”. In the case of “MKLSVLDQSPIAYGSNAKEALRQTTELAKVTEALGYHRFWVSEHHDASTLAGSSPEVLIAHLAAHTKKIRLGSGGVMLPHYSAYKVAENFKLLEALHPGRIDVGLGRAPGGMPIAKMALQEGKEQNIHKYPLQVKDVIGYLQDDLPTDHRFHGLKATPLIDTVPDVWLLGSSGGSANVAAENGTGFAFAHFINGEGGVQAVESYRETFQPSALFDRPQTSVAIFVICADTDEQADQIASSLDLSLIMLENGQLSKGTPSIESALSYPYSPFERARIRENRKRMIVGSPKAVRQQLVELARAYETEEVIVVTITHRFEDRIRSYELLGEEWNVN”, the “soluble on expression in E. coli” value is given as “not soluble”. With “MKEEATTLPQQFIKKYRLLLGEEASDFFSALEQGSVKKGFRWNPLKPAGLDMVQTYHSEELQPAPYSNEGFLGTVNGKSFLHQAGYEYSQEPSAMIVGTAAAAKPGEKVLDLCAAPGGKSTQLAAQMKGKGLLVTNEIFPKRAKILSENIERWGVSNAIVTNHAPAELVPHFSGFFDRIVVDAPCSGEGMFRKDPNAIKEWTEESPLYCQKRQQEILSSAIKMLKNKGQLIYSTCTFAPEENEEIISWLVENYPVTIEEIPLTQSVSSGRSEWGSVAGLEKTIRIWPHKDQGEGHFVAKLTFHGQNQMHKEKKTRKKSKVQMTKEQEKLWTEFSNDFHYEATGRLLVFNDHLWEVPELAPSLDGLKVVRTGLHLGDFKKNRFEPSYALALATKKIENIPCLPITQKEWQSYTAGETFQRDGNQGWVLLVLDKIPVGFGKQVKGTVKNFFPKGLRFH” the entry was “soluble”; with “MFREESRSVPVEEGEVYDVTIQDIARQGDGIARIEGFVIFVPGTKVGDEVRIKVERVLPKFAFASVVELEHHHHHH”, “not soluble”. For “MGSDKIHHHHHHMPSDASRRLYERLGIPLLPMDSPFGPEYPIGNKFAALALGPAVGHTLFLDSDMICVDAFEADMLCRFDAALKPADMALVAKQNDYWERIYAHAGSALPGDRVVTTCSGEAMPAYYNAGFILVRDARRFAEVWYRLAERVHADPLITNKMPWLDQLTLPVALHALNYKTRALSERFNYPLHIKPLSAASLPPFFCHYHSLDTLVSERSLWAELDELAKRFPELREVLALDANWKKAILAPAPRLAFSEGDSTGTVEAGQDLVITGIPRSGTSHLCRLLSQQPDTVVLNEPPQVFEALKLSPLPWGLPRYYAELRRDILAGRPVPNKHVNGRLVDDTARGNDQSSDYFAEVRGASFHLGTKNTLAYIARLPLIRKVMPTALLIATIRHPYDTLNSWANTFEHLRQAAVERQPFGCPDDLALTGWQRKALLAIADTDHLAVRRALWWRYLALQLEDAGDYVQLLRYEDFVEAPQTTLAALRNNRPLPFDEPAVWSKGLAPDEQELVANIVCDVAERFHYVL”, the “soluble on expression in E. coli” value is recorded as “not soluble”. On to “MSLSIKNIKRIITAWKPSTFETYKKTFEKYGGSVNMHPDVVSYFMIHHDWKFDFFHYEKDGDIKGSYFLCNGKQIGIMARRSYPLSSDEVLIPFSPHARCFFPDKTNKLSIINKQNIINATWKIARKKQNCIIKESFSPKFEKTRRNEIQRFIRNGGEIKCISQLSDKEISSSYISLFHSRFGGTLPCYEYDNLLMFISHLRELMFGHVLFWDNKPCAIDIVLKSESSCNVYYDVPNGAVLNDENCMKLSPGSVLMWLNIDKARRYCQDNNKKMIYSIGAFRPEWKYKLLWSVPCKVGKCLCEGHHHHHH”, for which the “soluble on expression in E. coli” value is “soluble”.
